Numbering of substitutions follows the chain as printed.

Sequences and labels used below:
T1: dog iRhom2 full length wild type C-terminally tagged with 3 consecutive copies of the T7 epitope (dog, UniProt Q00M95 1-827)
T1 construct: whole, on cells; also called dog-iR2-FL-WT-T7; expressed by MEF-DKO-Dog-iR2-FL-WT-T7 cells
T1 sequence: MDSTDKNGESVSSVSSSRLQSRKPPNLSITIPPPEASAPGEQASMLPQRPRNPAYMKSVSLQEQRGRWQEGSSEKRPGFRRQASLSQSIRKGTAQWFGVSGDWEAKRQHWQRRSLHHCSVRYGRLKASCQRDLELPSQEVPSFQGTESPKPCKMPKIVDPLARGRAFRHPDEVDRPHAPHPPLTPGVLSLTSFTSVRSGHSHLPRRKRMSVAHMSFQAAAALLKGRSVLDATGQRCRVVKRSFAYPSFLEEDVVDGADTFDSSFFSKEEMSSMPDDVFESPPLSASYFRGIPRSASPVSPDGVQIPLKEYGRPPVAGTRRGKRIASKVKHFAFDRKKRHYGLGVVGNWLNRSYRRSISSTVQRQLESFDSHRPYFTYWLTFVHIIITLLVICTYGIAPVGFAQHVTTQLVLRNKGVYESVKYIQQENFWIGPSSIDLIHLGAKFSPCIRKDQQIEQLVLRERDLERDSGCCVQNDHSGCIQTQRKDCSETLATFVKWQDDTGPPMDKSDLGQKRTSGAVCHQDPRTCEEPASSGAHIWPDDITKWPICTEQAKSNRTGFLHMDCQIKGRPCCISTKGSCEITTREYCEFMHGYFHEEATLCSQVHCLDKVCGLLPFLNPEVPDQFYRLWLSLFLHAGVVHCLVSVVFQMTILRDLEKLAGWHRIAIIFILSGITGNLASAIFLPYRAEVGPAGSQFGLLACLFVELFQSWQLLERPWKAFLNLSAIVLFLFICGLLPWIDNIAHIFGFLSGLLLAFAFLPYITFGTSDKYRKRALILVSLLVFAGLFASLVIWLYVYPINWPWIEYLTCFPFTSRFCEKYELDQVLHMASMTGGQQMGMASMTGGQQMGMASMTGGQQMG

T2: dog iRhom1 full length wild type, T7-tagged (dog, UniProt A0A8I3MHT7 11-866)
T2 construct: whole, on cells; also called Dog-iR1-FL-WT-T7; expressed by MEF-DKO-Dog-iR1-FL-WT-T7 cells
T2 sequence: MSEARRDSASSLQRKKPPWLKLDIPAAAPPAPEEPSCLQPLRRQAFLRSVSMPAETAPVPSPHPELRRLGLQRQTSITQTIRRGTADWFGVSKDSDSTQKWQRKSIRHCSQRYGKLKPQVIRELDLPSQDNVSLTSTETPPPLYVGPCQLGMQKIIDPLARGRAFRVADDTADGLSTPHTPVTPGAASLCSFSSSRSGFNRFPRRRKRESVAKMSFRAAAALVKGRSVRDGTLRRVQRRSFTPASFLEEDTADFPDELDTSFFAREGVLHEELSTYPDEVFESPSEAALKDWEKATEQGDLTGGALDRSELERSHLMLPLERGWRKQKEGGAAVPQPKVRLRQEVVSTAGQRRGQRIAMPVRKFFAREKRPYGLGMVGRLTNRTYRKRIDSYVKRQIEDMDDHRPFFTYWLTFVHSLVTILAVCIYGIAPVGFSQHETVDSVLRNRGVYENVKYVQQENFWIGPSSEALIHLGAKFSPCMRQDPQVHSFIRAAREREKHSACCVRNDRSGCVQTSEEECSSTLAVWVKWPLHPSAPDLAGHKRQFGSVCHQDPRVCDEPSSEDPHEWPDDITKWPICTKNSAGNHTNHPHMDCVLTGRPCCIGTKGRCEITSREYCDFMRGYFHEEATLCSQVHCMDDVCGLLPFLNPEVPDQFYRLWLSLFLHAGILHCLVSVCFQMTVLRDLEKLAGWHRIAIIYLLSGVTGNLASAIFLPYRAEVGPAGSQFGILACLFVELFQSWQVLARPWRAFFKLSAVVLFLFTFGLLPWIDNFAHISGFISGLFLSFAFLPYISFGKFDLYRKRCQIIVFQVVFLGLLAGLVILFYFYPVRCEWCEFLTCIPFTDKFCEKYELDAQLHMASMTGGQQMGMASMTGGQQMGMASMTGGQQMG

B1: humanized antibody 42-B-04 (antibody, V domains shown)
VH: QVTLRESGPALVKPTQTLTLTCTFSGFSLSTFGRGVGWIRQPPGKALEWLAHIWWDDEKYYNSALKSRLTISKDTSKNQVVLTITNMDPVDTATYYCARIQNYGSNYWYFDVWGQGTLVTVSS
VL: AIQLTQSPSSLSASVGDRVTITCRASSRISYMFWYQQKPGKAPKVLIYDTSNLASGVPSRFSGSGSGTDYTLTISSLQPEDFATYYCQQWNAYPLTFGQGTKLEIK
notes: Tested as whole humanized antibody produced in CHO cells and detected with anti-human IgG; the general methods speak of human IgG1/Kappa; also called clone 42-B-04
B2: humanized antibody 23-B-04 (antibody, V domains shown)
VH: B1 VH with R34M, Q101S, D111N
VL: B1 VL with R28S, I29V, F33Y
notes: Tested as whole humanized antibody produced in CHO cells and detected with anti-human IgG; the general methods speak of human IgG1/Kappa; also called clone 23-B-04
B3: humanized antibody 42-B-02 (antibody, V domains shown)
VH: B1 VH
VL: B1 VL with A92S
notes: Tested as whole humanized antibody from transient expression of heavy chain/kappa light chain pairs in CHO cells, detected with anti-human IgG; the general methods speak of human IgG1/Kappa; also called clone 42-B-02
B4: humanized antibody 16-B-07 (antibody, V domains shown)
VH: QVTLRESGPALVKPTQTLTLTCTFSGFSLSTFALGVGWIRQPPGKALEWLAHIWWDEDKYYNPALKSRLTISKDTSKNQVVLTITNMDPVDTATYYCARITTYYYGMDYWGQGTLVTVSS
VL: EIVMTQSPDFQSVTPKEKVTITCRASQSIGNHLHWYQQKPDASPKLLIKYASQSISGVPSRFSGSGSGTDFTLTINSLEAEDAATYFCQQSYQWPLTFGQGTKLEIK
notes: Tested as whole humanized antibody produced in CHO cells and detected with anti-human IgG; the general methods speak of human IgG1/Kappa; also called clone 16-B-07
B5: humanized antibody 16-B-05 (antibody, V domains shown)
VH: B4 VH
VL: B4 VL with Q93N
notes: Tested as whole humanized antibody produced in CHO cells and detected with anti-human IgG; the general methods speak of human IgG1/Kappa; The printed LCVD reads SRESGSG where the printed cDNA encodes SRFSGSG; also called clone 16-B-05
B6: humanized antibody 16-B-03 (antibody, V domains shown)
VH: B4 VH with E57D
VL: B4 VL
notes: Tested as whole humanized antibody produced in CHO cells and detected with anti-human IgG; the general methods speak of human IgG1/Kappa; also called clone 16-B-03

The target in the first assay is T1, dog iRhom2 full length wild type …. In words: FACS on MEF-DKO-Dog-iR2-FL-WT-T7 cells, 3 µg/ml. The procedure:
(§1) In brief, immortalized MEF-DKO-EV control cells, MEF-DKO-rhesus-iR2-FL-WT-T7 cells, MEF-DKO-cyno-iR2-FL-WT-T7 cells, MEF-DKO-dog-iR2-FL-WT-T7 cells and MEF-DKO-rabbit-iR2-FL-WT-T7 cells, as well as their respective iRhom1 counterparts, were harvested with 10 mM EDTA in PBS, washed and resuspended in FACS buffer (PBS, 3% FBS, 0.05% sodium azide), and seeded in Nunc U-bottom 96-well plates (Thermo Fisher Scientific, USA) at approximately 3×10⁵ cells per well. To pellet cells and remove supernatants, the plates were centrifuged at 1,500 rpm and 4° C. for 3 minutes. For primary staining, cells were resuspended in 100 μl per well of either FACS buffer alone (controls), mouse monoclonal anti-T7 IgG (Merck Millipore, USA) at 3 μg/ml FACS buffer or the antibodies of the invention also at 3 μg/ml FACS buffer and incubated on ice for 1 hour. Afterwards, plates were centrifuged at 1,500 rpm and 4° C. for 3 minutes and washed twice with 200 μl per well of FACS buffer. For secondary staining of previous anti T7 staining, cells were spun down and resuspended in 100 μl per well of PE-conjugated goat anti-mouse IgG F(ab′)2 detection fragment (Dianova, Germany) diluted 1:100 in FACS buffer. For secondary staining of previous staining with humanized antibodies of invention, cells were spun down and resuspended in 100 μl per well of PE-conjugated goat anti-human IgG F(ab′)2 detection fragment (Dianova, Germany) diluted 1:100 in FACS buffer. Protected from light, the cell suspensions were incubated on ice for 1 hour. Plates were then centrifuged at 1,500 rpm and 4° C. for 3 minutes and washed three times with 200 μl per well of FACS buffer. Finally, cells were resuspended in 150 μl per well of FACS buffer and analyzed using a BD Accuri™ C6 Plus flow cytometer (Becton Dickinson, Germany).
Take B1: the binding result is reported as “binds”.

On to B2, for which the binding result is “binds”.

With B3, the binding result is on record as “binds”.

With B4, the binding result is listed as “binds”.

B5: the binding result is reported as “binds”.

Another assay has as its target T2, dog iRhom1 full length wild type, …. In words: FACS on MEF-DKO-Dog-iR1-FL-WT-T7 cells. The procedure: as §1
With B1, the binding result is “no binding (tested: 3 µg/ml)”.

On to B2, for which the binding result was “no binding (tested: 3 µg/ml)”.

Take B3: the binding result was “no binding (tested: 3 µg/ml)”.

B4: the binding result was “no binding (tested: 3 µg/ml)”.

Turning to B5, the binding result is listed as “no binding (tested: 3 µg/ml)”.

Turning to B6, the binding result is on record as “no binding (tested: 3 µg/ml)”.

Source of the values: patent publication US20240166767A1 (SCIRHOM, published 2024).
